Source: patent US20220033462A1 (ALLOGENE THERAPEUTICS, published 2022)
Values belong to the binder of their own block, whether it stands above or below them.

Target: T1, biotinylated recombinant human PSMA-human IgG1 Fc fusion protein (human, UniProt Q04609 44-750, biotinylated (sites not given))
T1 construct: Staining reagent; not shown: human IgG1 Fc
Test: flow cytometry, reporter Jurkat cells co-expressing P-CAR1 (FIGS. 1-4)

T1 sequence (Q04609 44-750 limits assumed): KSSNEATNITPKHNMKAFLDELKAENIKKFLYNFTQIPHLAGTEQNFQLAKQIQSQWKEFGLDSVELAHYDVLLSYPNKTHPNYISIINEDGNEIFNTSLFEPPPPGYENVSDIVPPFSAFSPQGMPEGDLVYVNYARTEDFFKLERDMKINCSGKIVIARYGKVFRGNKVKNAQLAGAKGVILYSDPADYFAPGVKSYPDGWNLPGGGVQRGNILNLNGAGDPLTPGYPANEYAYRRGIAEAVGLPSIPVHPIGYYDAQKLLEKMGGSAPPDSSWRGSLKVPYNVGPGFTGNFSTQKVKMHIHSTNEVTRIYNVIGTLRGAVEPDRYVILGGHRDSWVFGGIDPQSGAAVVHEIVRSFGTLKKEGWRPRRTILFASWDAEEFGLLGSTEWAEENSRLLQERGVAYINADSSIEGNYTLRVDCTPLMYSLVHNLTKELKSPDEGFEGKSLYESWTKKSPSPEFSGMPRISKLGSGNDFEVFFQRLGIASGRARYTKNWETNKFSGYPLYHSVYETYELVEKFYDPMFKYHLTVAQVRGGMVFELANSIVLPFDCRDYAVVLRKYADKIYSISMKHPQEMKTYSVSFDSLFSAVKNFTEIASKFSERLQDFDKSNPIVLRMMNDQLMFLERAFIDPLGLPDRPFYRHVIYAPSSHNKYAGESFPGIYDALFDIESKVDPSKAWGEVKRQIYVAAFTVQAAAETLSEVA

B4: N-CAR LY9 (SEQ ID No 1999 with intracellular domain SEQ ID No 2008) (other)
chain: EVQLQQSGPELVKPGTSVRISCKTSGYTFTEYTIHWVKQSHGKSLEWIGNINPNNGGTTYNQKFEDKATLTVDKSSSTAYMELRSLTSEDSAVYYCAAGWNFDYWGQGTTVTVSSGGGGSGGGGSGGGGSDIVMTQSHKFMSTSVGDRVSIICKASQDVGTAVDWYQQKPGQSPKLLIYWASTRHTGVPDRFTGSGSGTDFTLTITNVQSEDLADYFCQQYNSYPLTFGAGTMLDLKRAAATERRAEVPTAHPSPSPRPAGQFQTLVVGVVGGLLGSLVLLVWVLAVIKRKGRCSVPAFCSSQAEAPADTPEPTAGHTLYSVLSQGYEKLDTPLRPARQQPTPTSDSSSDSNLTTEEDEDRPEVHKPISGRYEVFDQVTQEGAGHDPAPEGQADYDPVTPYVTEVESVVGENTMYAQVFNLQGKTPVSQKEESSATIYCSIRKPQVVPPPQQNDLEIPESPTYENFT
- binding result: binds

B7: N-CAR CD300LF (SEQ ID No 1999 with intracellular domain SEQ ID No 2007) (other)
chain: EVQLQQSGPELVKPGTSVRISCKTSGYTFTEYTIHWVKQSHGKSLEWIGNINPNNGGTTYNQKFEDKATLTVDKSSSTAYMELRSLTSEDSAVYYCAAGWNFDYWGQGTTVTVSSGGGGSGGGGSGGGGSDIVMTQSHKFMSTSVGDRVSIICKASQDVGTAVDWYQQKPGQSPKLLIYWASTRHTGVPDRFTGSGSGTDFTLTITNVQSEDLADYFCQQYNSYPLTFGAGTMLDLKRAAATERRAEVPTAHPSPSPRPAGQFQTLVVGVVGGLLGSLVLLVWVLAVIWRMMKYQQKAAGMSPEQVLQPLEGDLCYADLTLQLAGTSPQKATTKLSSAQVDQVEVEYVTMASLPKEDISYASLTLGAEDQEPTYCNMGHLSSHLPGRGPEEPTEYSTISRP
- binding result: binds

B8: N-CAR PD1-L2-ITSM (SEQ ID No 1999 with intracellular domain SEQ ID No 2012) (other)
chain: EVQLQQSGPELVKPGTSVRISCKTSGYTFTEYTIHWVKQSHGKSLEWIGNINPNNGGTTYNQKFEDKATLTVDKSSSTAYMELRSLTSEDSAVYYCAAGWNFDYWGQGTTVTVSSGGGGSGGGGSGGGGSDIVMTQSHKFMSTSVGDRVSIICKASQDVGTAVDWYQQKPGQSPKLLIYWASTRHTGVPDRFTGSGSGTDFTLTITNVQSEDLADYFCQQYNSYPLTFGAGTMLDLKRAAATERRAEVPTAHPSPSPRPAGQFQTLVVGVVGGLLGSLVLLVWVLAVICSRAARGTIGARRTGQPLKEDPSAVPVFSVDYGELDFQWREKTPEPPVPCVPEQTEYATIDFQWREKTPEPPVPCVPEQTEYATIVFPSGMGTSSPARRGSADGPRSAQPLRPEDGHCSWPL
- binding result: binds

B9: N-CAR PECAM (SEQ ID No 1999 with intracellular domain SEQ ID No 2009) (other)
chain: EVQLQQSGPELVKPGTSVRISCKTSGYTFTEYTIHWVKQSHGKSLEWIGNINPNNGGTTYNQKFEDKATLTVDKSSSTAYMELRSLTSEDSAVYYCAAGWNFDYWGQGTTVTVSSGGGGSGGGGSGGGGSDIVMTQSHKFMSTSVGDRVSIICKASQDVGTAVDWYQQKPGQSPKLLIYWASTRHTGVPDRFTGSGSGTDFTLTITNVQSEDLADYFCQQYNSYPLTFGAGTMLDLKRAAATERRAEVPTAHPSPSPRPAGQFQTLVVGVVGGLLGSLVLLVWVLAVIKCYFLRKAKAKQMPVEMSRPAVPLLNSNNEKMSDPNMEANSHYGHNDDVRNHAMKPINDNKEPLNSDVQYTEVQVSSAESHKDLGKKDTETVYSEVRKAVPDAVESRYSRTEGSLDGT
- binding result: binds

Results, then the binder that gave them:

- binding result: binds
B1: N-CAR PD1-TIM3 (SEQ ID No 1999 with intracellular domain SEQ ID No 2006) (other)
chain: EVQLQQSGPELVKPGTSVRISCKTSGYTFTEYTIHWVKQSHGKSLEWIGNINPNNGGTTYNQKFEDKATLTVDKSSSTAYMELRSLTSEDSAVYYCAAGWNFDYWGQGTTVTVSSGGGGSGGGGSGGGGSDIVMTQSHKFMSTSVGDRVSIICKASQDVGTAVDWYQQKPGQSPKLLIYWASTRHTGVPDRFTGSGSGTDFTLTITNVQSEDLADYFCQQYNSYPLTFGAGTMLDLKRAAATERRAEVPTAHPSPSPRPAGQFQTLVVGVVGGLLGSLVLLVWVLAVICSRAARGTIGARRTGQPLKEDPSAVPVFSVDYGELDFQWREKTPEPPVPCVPEQTEYATIVFPSGMGTSSPARRGSADGPRSAQPLRPEDGHCSWPLFKWYSHSKEKIQNLSLISLANLPPSGLANAVAEGIRSEENIYTIEENVYEVEEPNEYYCYVSSRQQPSQPLGCRFAMP

- binding result: binds
B2: N-CAR PD1-L2-ITSM-L2-ITSM (SEQ ID No 1999 with intracellular domain SEQ ID No 2013) (other)
chain: EVQLQQSGPELVKPGTSVRISCKTSGYTFTEYTIHWVKQSHGKSLEWIGNINPNNGGTTYNQKFEDKATLTVDKSSSTAYMELRSLTSEDSAVYYCAAGWNFDYWGQGTTVTVSSGGGGSGGGGSGGGGSDIVMTQSHKFMSTSVGDRVSIICKASQDVGTAVDWYQQKPGQSPKLLIYWASTRHTGVPDRFTGSGSGTDFTLTITNVQSEDLADYFCQQYNSYPLTFGAGTMLDLKRAAATERRAEVPTAHPSPSPRPAGQFQTLVVGVVGGLLGSLVLLVWVLAVICSRAARGTIGARRTGQPLKEDPSAVPVFSVDYGELDFQWREKTPEPPVPCVPEQTEYATIDFQWREKTPEPPVPCVPEQTEYATIDFQWREKTPEPPVPCVPEQTEYATIVFPSGMGTSSPARRGSADGPRSAQPLRPEDGHCSWPL

- binding result: binds
B3: N-CAR SIGLEC9 (SEQ ID No 1999 with intracellular domain SEQ ID No 2010) (other)
chain: EVQLQQSGPELVKPGTSVRISCKTSGYTFTEYTIHWVKQSHGKSLEWIGNINPNNGGTTYNQKFEDKATLTVDKSSSTAYMELRSLTSEDSAVYYCAAGWNFDYWGQGTTVTVSSGGGGSGGGGSGGGGSDIVMTQSHKFMSTSVGDRVSIICKASQDVGTAVDWYQQKPGQSPKLLIYWASTRHTGVPDRFTGSGSGTDFTLTITNVQSEDLADYFCQQYNSYPLTFGAGTMLDLKRAAATERRAEVPTAHPSPSPRPAGQFQTLVVGVVGGLLGSLVLLVWVLAVIVRSCRKKSARPAAGVGDTGIEDANAVRGSASQGPLTEPWAEDSPPDQPPPASARSSVGEGELQYASLSFQMVKPWDSRGQEATDTEYSEIKIHR

- binding result: binds
B5: N-CAR SIRPA (SEQ ID No 1999 with intracellular domain SEQ ID No 2011) (other)
chain: EVQLQQSGPELVKPGTSVRISCKTSGYTFTEYTIHWVKQSHGKSLEWIGNINPNNGGTTYNQKFEDKATLTVDKSSSTAYMELRSLTSEDSAVYYCAAGWNFDYWGQGTTVTVSSGGGGSGGGGSGGGGSDIVMTQSHKFMSTSVGDRVSIICKASQDVGTAVDWYQQKPGQSPKLLIYWASTRHTGVPDRFTGSGSGTDFTLTITNVQSEDLADYFCQQYNSYPLTFGAGTMLDLKRAAATERRAEVPTAHPSPSPRPAGQFQTLVVGVVGGLLGSLVLLVWVLAVIRIRQKKAQGSTSSTRLHEPEKNAREITQDTNDITYADLNLPKGKKPAPQAAEPNNHTEYASIQTSPQPASEDTLTYADLDMVHLNRTPKQPAPKPEPSFSEYASVQVPRK

- binding result: binds
B6: N-CAR PD1-PD1 (SEQ ID No 1999 with intracellular domain SEQ ID No 2005) (other)
chain: EVQLQQSGPELVKPGTSVRISCKTSGYTFTEYTIHWVKQSHGKSLEWIGNINPNNGGTTYNQKFEDKATLTVDKSSSTAYMELRSLTSEDSAVYYCAAGWNFDYWGQGTTVTVSSGGGGSGGGGSGGGGSDIVMTQSHKFMSTSVGDRVSIICKASQDVGTAVDWYQQKPGQSPKLLIYWASTRHTGVPDRFTGSGSGTDFTLTITNVQSEDLADYFCQQYNSYPLTFGAGTMLDLKRAAATERRAEVPTAHPSPSPRPAGQFQTLVVGVVGGLLGSLVLLVWVLAVICSRAARGTIGARRTGQPLKEDPSAVPVFSVDYGELDFQWREKTPEPPVPCVPEQTEYATIVFPSGMGTSSPARRGSADGPRSAQPLRPEDGHCSWPLCSRAARGTIGARRTGQPLKEDPSAVPVFSVDYGELDFQWREKTPEPPVPCVPEQTEYATIVFPSGMGTSSPARRGSADGPRSAQPLRPEDGHCSWPL
